The DeepSol protein solubility set

Test: soluble on expression in E. coli; label from the status in PepcDB or PDB records

Row | Sequence | soluble on expression in E. coli
1 | MGSDKIHHHHHHMLKPSDKWSWYFSDSEGYLMLNLGDDMLFRTNLSRNLLVDCAFIENPFTVDDASDFQLYKEHIACLPLSEPRKAELALYCVAAKRFHKPVQPKSWFFDVQGTGYTPQQGQLISLRNSLNSGIFIALEVGENATLCAYSDLVSFALNGSKTLEFGQVIKVMHDRMSDVNTLLYTPQMAMVS | not soluble
2 | MAHHHHHHMTVVQEAIRVTSATPQPCGAADDVLAMKTLSPHDKVRRYMEEQECRHVPPTDATPEVASSEGGHDDALPGQHEDGDGEINHKIVPFTGEPGPDARERVPDRQKEKKKQKKQQAPRKRKHRSECAGREADDPLLLFRRSQKALRTEARHVNMKEVLSRSLSGVFDGLGEASNPFSPAAGSQSSSAWSPLVANSITSQFLSNVQQRKKQTFERLLQKEIANSQLSTSRLTPDDGEPDDRIPELVIGDETAVMEPPSMGHDALLMDAGTTSSQADTLLMGNTTSRGFVELDEEAEQAQSEALMRKHELWRLRQKHLRERLRAEESIPQLKRGDHQASLRGQPQTTVPMNFVTQSTSSLSTARGTTADVDGPTETLVLAHCSIIQQSQSLALGLSADHIEMIRRANNFDNTSSQRLVVFETKSRMKREGLAHLQQ | not soluble
3 | MAHHHHHHMNRGCLLGEYTGRCLGESAHVRSNLICALCCVTRSQIIYIYIYIYFAVVVEEVPIVTCTNIIMSSVVSRREETHFCLRYFRIPSNKKNVFSLLYRQLLFNSLINHCF | not soluble
4 | MVLSRHVIITPCPDRPGTSILFSAKRGALILVDDELLAAIGAGGLDADEEQTLAELGFLVPDHDSEQQEMCSFVDESNRASRSFAALIILNLSCNLACSYCFEGNRRGAHFMDDDTADRLVAYLVSGPVAEGRSLSLRFYGGEPLLSVPTIRRIARPLKKVMDARGLSFSFSLTTNGTLLTRELVEELIPLGLVGATVTLDGPPDIHDAARPFVGGEGSFSVIFANLKAVADLIALEIGGNFTPETYREYPRLFDLLVAEGLGPERLALVRFNAVMSAGENRALPEFTGGCASVNEPWLKDATLFIREELLRRGFPAPGLSPHYCAIEAEDSLIVNHDGTFYRCPAFIGIEGLAAGSLDDGLSDHAASHGLGAWKNEECLSCAYLPLCFGGCRYYGYLEHGRIDRVSCGRDLFDAIVGPFLALEVKYRHQPGEDASDTDGDSD | not soluble
5 | MSLTKMVIKGGTVYDPLNGIDGEVMDIFIKDGKIVENLSDGELKDAKILDVKGKVVMPGGVDSHTHVAGPKVNTGRVMCPEDHYKSPLKKTHNTHCGSGEIVPSTYAQGYKYSSMGYTTLFEAAVPPMLARHTHEEFKVMPIVDKAGYLLLGSNWFVMKYLKEGNVEKAAAYVAWALETTKTFGIKLVNPAGVESWAWGKNVHSLEEENIHFGISSGEVIRGLGAVNEMLGLPMSIHLHANNLGHPGNWEFTIDTMDVAKNIKPAVNKQGYDNGVKTKYSHEREQSLYMTHMQFHSFGGTSWKDFESKAEDISNYVNKSDHVVMDSGSVAFGKAICMTGDGPGLYDLAVMNGQKWANVDVELECGSGVVPFVYSMKNKVHSVQWAMGIELLLLTDPRKVIMTTDNPNAGPFTKYPQLITWLMSKKAREDTMKLCHKWAGERSGLAGNDKELSLYDLATVTRATPAKAIGMGHRKGHLSPGADADITVYDISPDYNSSDYAAIEKAFTTALFTIKDGEVITKDGRIIETPKGRTYYVDAKFNEEIQKEIIADVQDWFRRYYSIGFSNYPVPDLYLTKPTPLNINVREGHHHHHH | not soluble
6 | GMDDQSGDQMRPELTMPPAEAEALRMAYEEAEVILEYGSGGSTVVAAELPGKHVTSVESDRAWARMMKAWLAANPPAEGTEVNIVWTDIGPTGDWGHPVSDAKWRSYPDYPLAVWRTEGFRHPDVVLVDGRFRVGCALATAFSITRPVTLLFDDYSQRRWQHQVEEFLGAPLMIGRLAAFQVEPQPIPPGSLMQLIRTMTSP | soluble
7 | MEVKIEETDWDEGVPGISFLKDAFSREEISPPKDDKNRKKEEVRMKLESGEYSVVYRCPTFDEILNENGQKIDLVQCKNCFGFLSARTGGHMKNHKNQRCKPLNGPPEKKPKLDPQVVGNLQNHILDFVTESGVSLNIAESEKFRIFIISMIITGNPNVNVDEHQFLSGEWIRKTMKEKSCQYLDNIGAELKDPVSKGDACLILDYGRQLDDTFSIFVSYTNRSSGYFSLRVIPLAFTPLFEKKITEKTLDYILHATDRVGLPKEHVLKLKVVAEGATNMLKLGEYFDNCNLFTVCLSFSSKMCRKSFRSTETVEKFDNFIRKITCESDRKRNRNLWNDFLQTPALQSLINIYVLSLILLCFQLTEQLSRTPAQSRANEWLASYHCARDILHVFPQIADLKDDRIEPLVDELRQCKGVLEDCFEIFSLFENPLKLLEQPEQQIQNVAGCLAAVAKMAKLSIAHYTKITVTDVHLICAFLSPDSKNLKNFPAPKKNKAYRIVNTLMKDVVVPPPSLSQPILSPLLMAIKNDPSPIPTVSQEFNDYVQLVVSSKDATLAPLEFWAKYQERFPRMSEIAAKNFCVMSSPGVCGPSFIVLRSLFRVDRHSKFPDTTELMMISYLMANELK | not soluble
8 | MKVELQISETYEEEKLIVQAPQETEKVQKVIEFAENLDQREKIKGKIDDQVYLVEIGKIQRFYIENRKVLAETASQTYSIDLRLYQVLKLLPTNFIQISQSEIINIDSISHLKLTPNGLVEIFLKNESFTYSSRRYLKTIKEKLEL | not soluble
9 | MGSDKIHHHHHHMENTIYLSSAYLAPVEYYTKLFACEKAYVEQYDNYVKQTYRNRCVIAAADGPLALTIPTEKSGTPKCLMKDVRISDHGNWRHIHWNALVAAYRNSPFFEYYADDFHVFYEKKYAFLWDYNQEICSLVCDLIDIHPHMEGTTEYCMEFVPGEVDFRETIHPKRDWREADADFCPKPYYQVFDAKYGFLPNLSIADLLFNMGPESLIVLRDSVKGINHKE | not soluble
10 | GFTPHDSAPYGALDMADFEFEQMFTDALGIDEYGG | soluble
11 | MNKTYDFKSITENFNLEGELKTSDSHVCGHINDTFIINCEGENGEEIKYVLQRVNSDIFKNPEQLMENIENVTSHIKNKIIEENGDPLRETLNIVKTKEGKNFYKCKEGNYWRIFNFIHDASTYQIVEKPEHLYTAGKALGKFQKQLSDFNVDMLYDTIPDFHNTEKRFEAFMEAVREDKKGRAKDVKEEIDFVINRAEDTKVLVNMIKENKLPLRVTHNDTKFNNIMIDDETGEGIAVIDLDTVMPGLSLYDFGDSIRSGATTALEDEVDLSKVNFDLNLYEHFTKGFLESAGDAFTKEEIEYLPFAAKLMTFECGMRFLMDYLNGDVYFKIHRENHNLDRARNQFKLVSDMEKEMDNMKKIVYSYILEHHHHHH | not soluble
12 | MGSDKIHHHHHHMFDDADDIDTETVEEWEASAEFGLLYTSGNTETESLKGKFTASRDVQNWRHKGVFDYYTSEQKDQDTGEMNETADRIFISAQSNYKFDPDSRDSLFVFGSYEEDEFSGFAYQATVATGYGARYRYDEDIYADYEIGPGYSRTKPVQVEGEPPVESDGSMILRLAGSLNWKISENSRFSALLSSEVGEDNTKSKAELSVSANINSALAMKVSLGANHNSHVADESIEKLDTETAVTLVYSF | not soluble
13 | MRGSHHHHHHTDPALRAKKIPCVMMRGGTSRGAFLLAEHLPEDQTQRDKILMAIMGSGNDLEIDGIGGGNPLTSKVAIISRSSDPRADVDYLFAQVIVHEQRVDTTPNCGNMLSGVGAFAIENGLIAATSPVTRVRIRNVNTGTFIEADVQTPNGVVEYEGSARIDGVPGTAAPVALTFLNAAGTKTGKVFPTDNQIDYFDDVPVTCIDMAMPVVIIPAEYLGKTGYELPAELDADKALLARIESIRLQAGKAMGLGDVSNMVIPKPVLISPAQKGGAINVRYFMPHSCHRALAITGAIAISSSCALEGTVTRQIVPSVGYGNINIEHPSGALDVHLSNEGQDATTLRASVIRTTRKIFSGEVYLPGLCGR | soluble
14 | MGSDKIHHHHHHMIYSVDKKDIEIGISACLIGEKVRFDASNKPSHFCIKEFSEHVSYKSFCPEVAVGLPIPRPTIRQIKRDDVIHVSQKDGSGDVTEALKAYGKKVASMTKSLSGYIFCAKSPSCGMERVKIYSPEGNSLPSKGIGAFAKEIMDANPLLPCEENGRLNDPLLRENFVARVFAYKHWQTIVESGLTKHKLTTFHSHYKYTVMSHDLIAYKELGQLLARADLPLDEVAAQYILGLMTALKIIATRKKHANTLAHIQGYFSKHLQANERQELCEQIDAYREGLIPLMAPLTLIKHYLLNHPKDYLTKQAYLSPYPDKLRLRYAY | not soluble
15 | MSLNSLDTSASTINGASIIQVIFEIFEISLQRKDYTSIVQCCEFMTMLTPNYLHLVSSYLNKSDLLDKYGKTGLSNMILGSVELSTGDYTFTIQLLKLTKVFIRESLSLKNIHISKRSKIDIINKLILHAIHIFESYYNWKYNNFLQKFEIAFHLTLIFYDVLHDVFTINPHQKDQLIISSSANKLLQLFLTPMDSIDLAPNTLTNILISPLNTTTKILGDKILGNLYSKVMNNSFKLCTLLISIRGSNRDLKPSNLEKLLFINSSKLVDVYTLPSYVHFKVQIIELLSYLVEAPWNDDYPFLLSFLGEAKSMAFLKEVLSDLSSPVQDWNLLRSLYIFFTTLLESKQDGLSILFLTGQFASNKKINDESSIDKKSSILTVLQKNSLLLDSTPEEVSCKLLETITYVLNTWTNSKIFIKDPKFVNSLLAKLKDSKKLFQKKENLTRDETVSLIKKYKLISRIVEIFALCIYNSTDSNSEILNFLNQEDLFELVHHFFQIDGFNKTFHDELNLKFKEKWPSLELQSFQKIPLSRINENENFGYDIPLLDIVLKADRSWNEPSKSQTNFKEEITDASLNLQYVNYEISTAKAWGALITTFVKRSTVPLNDGFVDLVEHFLKLNIDFGSDKQMFTQIYLERIELSFYILYSFKLSGKLLKEEKIIELMNKIFTIFKSGEIDFIKNIGKSLKNNFYRPLLRSVLVLLELVSSGDRFIELISDQLLEFFELVFSKGVYLILSEILCQINKCSTRGLSTDHTTQIVNLEDNTQDLLLLLSLFKKITNLNPSKNFNVILASSLNEVGTLKVILNLYSSAHLIRINDEPILGQITLTFISELCSIEPIAAKLINSGLYSVLLESPLSVAIQQGDIKPEFSPRLHNIWSNGLLSIVLLLLSQFGIKVLPETCLFVSYFGKQIKSTIYNWGDNKLAVSSSLIKETNQLVLLQKMLNLLNYQELFIQPKNSDDQQEAVELVIGEGHHHHHH | not soluble
16 | SQSAEKFQGSHLLCPGCGHGIIVREVLNAVDGPIVLGNSTGCLEVCSAVYPHTSWDVPWIHIGFENGSTAISGVEAMYKALTNKGRYQGQKPKFVAFGGDGASYDIGLQFISGCMERGHDMTYICLDNENYANTGGQRSGSTPLGASTSTTPAGSVSFGKKEKKKDIVNIMASHGVPYVAQLSPNKWKDMNKKIKTALDTEGPCFINALSPCTTEWKFESNKTIELADMAVDSLMFPLFEIFNGRELKITYRPRNIIPVRDYLGAQKRFKHLFKKENEHIIEELQKDVNERWEYLQRREEAK | not soluble
17 | MSEKLVLSSGKCFLHEVLCRREEKEYRQNRANLRRGADTTTEVYAFPYVYPQLPQEATTQERLVLMRVAALAAEFGNIPAVGSDTPAKSLGRWAYEVSRQRMLDRQQQVAFNPKKLDVVGERLAYLHTQDFEEAVRAVSRLMSIASSLSNVPAFDYIALYSLFSYWGNGISEKSQRVRMRVLQDYYGSFGSLIE | not soluble
18 | MNPIVKAPTLNDLPAPPPGKTGWPWTEQNEALPEKMPDGSDWPKISIVTPSYNYGQFIEETIRSVLLQGYPNLEYIVVDGGSTDNTVTIIRKYEKYLKYWASEPDHGQTDAINKGYRYCSGDVFAWLNADDLYYDQSTLLKVINFYQKGYDLIVGECLNINADGTHFNQAITSTEKSDPTYFKKYLRYWSSGFLPQPAIFVKKEMADQCFPLSIELYYAMDFQFFLRVLNQEPKSVWIQEKLTRLRWHEDSKTMGTISRIDFHAIVPEPEVHKVALAEAENLPTWLEKIFFRIQAFDYLSLQPYINSLDNFHWLQITKTIVKRPTLAVWPLFWKIFFRSLLGEQIYKLLKRTIRTNLEHHHHHH | not soluble
